Measured values taken from patent US20020164702A1.

Target: endogenous mouse MuSK on C2C12 myotubes or primary mouse myotubes (mouse) (UniProt Q61006)
Test: cell-based or functional assay

Sequence of UniProt Q61006 (Q61006 22-868): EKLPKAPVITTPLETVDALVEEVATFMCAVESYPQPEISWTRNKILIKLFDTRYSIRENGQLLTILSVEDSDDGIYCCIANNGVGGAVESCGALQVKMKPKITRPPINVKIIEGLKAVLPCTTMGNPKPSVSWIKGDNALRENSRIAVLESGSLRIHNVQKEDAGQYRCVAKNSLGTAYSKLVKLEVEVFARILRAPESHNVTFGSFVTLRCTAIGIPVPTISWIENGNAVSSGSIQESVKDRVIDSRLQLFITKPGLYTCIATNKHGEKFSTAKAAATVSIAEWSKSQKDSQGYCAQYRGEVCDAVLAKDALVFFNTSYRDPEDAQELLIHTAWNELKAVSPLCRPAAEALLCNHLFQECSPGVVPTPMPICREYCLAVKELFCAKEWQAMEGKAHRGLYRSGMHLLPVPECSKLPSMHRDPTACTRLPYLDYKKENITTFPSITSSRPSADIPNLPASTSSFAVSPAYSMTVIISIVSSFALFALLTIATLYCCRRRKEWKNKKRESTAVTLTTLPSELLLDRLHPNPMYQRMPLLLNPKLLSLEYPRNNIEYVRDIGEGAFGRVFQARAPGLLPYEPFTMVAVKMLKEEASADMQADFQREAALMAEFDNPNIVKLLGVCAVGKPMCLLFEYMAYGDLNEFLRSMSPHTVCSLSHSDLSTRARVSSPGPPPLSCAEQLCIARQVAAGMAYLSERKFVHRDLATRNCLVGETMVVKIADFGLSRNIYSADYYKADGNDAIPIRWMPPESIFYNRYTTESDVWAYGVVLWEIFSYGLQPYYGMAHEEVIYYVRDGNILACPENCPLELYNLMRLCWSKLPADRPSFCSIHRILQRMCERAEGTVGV

tyrosine phosphorylation of MuSK in myotubes, dose: 1 nM
Substance: agrin (isoform not stated at that place) (ligand)
